This note sets out measurements from patent publication US20260337282 (published 2026).

To fix the notation:
T1: mouse CCR8 (mouse)
T1 chain: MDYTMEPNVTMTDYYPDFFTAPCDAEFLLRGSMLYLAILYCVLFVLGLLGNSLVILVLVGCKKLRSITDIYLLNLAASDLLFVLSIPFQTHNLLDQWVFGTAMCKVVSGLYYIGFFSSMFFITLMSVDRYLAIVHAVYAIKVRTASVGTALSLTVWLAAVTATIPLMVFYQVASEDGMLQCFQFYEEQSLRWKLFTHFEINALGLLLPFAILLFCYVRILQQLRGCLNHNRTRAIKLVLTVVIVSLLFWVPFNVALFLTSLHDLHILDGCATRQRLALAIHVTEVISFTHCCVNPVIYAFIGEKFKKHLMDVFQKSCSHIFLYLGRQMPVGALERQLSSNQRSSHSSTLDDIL

B1: 11F8-SG-11F8-SG (antibody, V domains shown)
VH: QVQLVESGGGVVQPGRSLRLSCAASGFTFSTYVMHWVRQAPGKGLEWVAVISYSGNNKYYADSVKGRFIISRDNSKNTLFLQMNSLRGEDTAVYYCARGRSYVNYYGLDVWGQGTTVTVSS
VL: DIVMTQTPLSLSVTPGQPASISCKSSQSLLYSSGKTYLYWYLQKPGQPPHLLIYEVSNRFSGVPKRFSGSGSGTDFTLKISRVEAEDVGVYYCMQSVKIPLTFGGGTKVEIK
B2: 11F8-SG-11F8-DA (antibody, V domains shown)
VH: B1 VH
VL: B1 VL with S33D, G34A
B3: 11F8-11B12 (antibody, V domains shown)
VH: B1 VH with S54D
VL: B1 VL with S33D, H50Q, L51I, Y54F, K65D, V97I, I99L
B4: 11F8-DA-11F8-SG (antibody, V domains shown)
VH: B1 VH with S54D, G55A
VL: B1 VL
B5: 11B12-AG-11B12-SG (antibody, V domains shown)
VH: QVQLVESGGGVVQPGRSLRLSCAASGFSFSSYVMHWVRQAPGKGLEWVAVISYAGSDKYYADSVKGRFTISRDNSKNTLFLQMNSLRPEDTAVYYCARGRGYRYGQSYYYGMDVWGQGTTVTVSS
VL: B1 VL with H50Q, L51I, Y54F, K65D, V97I, I99L
B6: 11B12-11F5 (antibody, V domains shown)
VH: B5 VH with A54D
VL: B1 VL with S33D, P45A, H50Q, K65D, Y91F, V97L, I99V, L101P, G105Q, E110D
B7: 11B12-SG-11B12-DA (antibody, V domains shown)
VH: B5 VH with A54S
VL: B1 VL with S33D, G34A, H50Q, L51I, Y54F, K65D, V97I, I99L
B8: 11F8-DA-11F8-DA (antibody, V domains shown)
VH: B1 VH with S54D, G55A
VL: B1 VL with S33D, G34A
B9: 11B12-SG-11F8-SG (antibody, V domains shown)
VH: B5 VH with A54S
VL: B1 VL
B10: 11F8-DA-11F8-AG (antibody, V domains shown)
VH: B1 VH with S54D, G55A
VL: B1 VL with S33A
B11: 11F5-11F8 (antibody, V domains shown)
VH: EVQLVESGGGVVQPGRSLRLSCAASGFTFSSYVVHWVRQAPGKGLEWVAVISYDGDNKFYADSVKGRFTISRDNSKNTLYLQMNSLRTEDTAVYYCARGRNYYYYYGLDVWGQGTTVTVSS
VL: B1 VL with S33D
B12: 11F5-SG-11F5-DA (antibody, V domains shown)
VH: B11 VH with D54S
VL: DIVMTQTPLSLSVTPGQPASISCKSSQSLLYSDAKTYLYWYLQKAGQPPQLLIYEVSNRFSGVPDRFSGSGSGTDFTLKISRVEAEDVGVFYCMQSLKVPPTFGQGTKVDIK
B13: 11F8-AG-11F8-AG (antibody, V domains shown)
VH: B1 VH with S54A
VL: B1 VL with S33A
B14: 11B12-11F8-SG (antibody, V domains shown)
VH: B5 VH with A54D
VL: B1 VL
B15: 11F8-11F5 (antibody, V domains shown)
VH: B1 VH with S54D
VL: B12 VL with A34G
B16: 11B12-SG-11B12-SG (antibody, V domains shown)
VH: B5 VH with A54S
VL: B1 VL with H50Q, L51I, Y54F, K65D, V97I, I99L
B17: 11B12-AG-11B12-DA (antibody, V domains shown)
VH: B5 VH
VL: B1 VL with S33D, G34A, H50Q, L51I, Y54F, K65D, V97I, I99L
B18: 11F8-SG-11F8-AG (antibody, V domains shown)
VH: B1 VH
VL: B1 VL with S33A
B19: 11F8-AG-11F8-DA (antibody, V domains shown)
VH: B1 VH with S54A
VL: B1 VL with S33D, G34A
B20: 11F5-11B12 (antibody, V domains shown)
VH: B11 VH
VL: B1 VL with S33D, H50Q, L51I, Y54F, K65D, V97I, I99L
B21: 11F5-DA-11F5-DA (antibody, V domains shown)
VH: B11 VH with G55A
VL: B12 VL
B22: 11B12-SG-11B12-AG (antibody, V domains shown)
VH: B5 VH with A54S
VL: B1 VL with S33A, H50Q, L51I, Y54F, K65D, V97I, I99L
B23: 11F5-SG-11F5-AG (antibody, V domains shown)
VH: B11 VH with D54S
VL: B12 VL with D33A, A34G
B24: 11F5-DA-11F5-SG (antibody, V domains shown)
VH: B11 VH with G55A
VL: B12 VL with D33S, A34G
B25: 11F8-AG-11F8-SG (antibody, V domains shown)
VH: B1 VH with S54A
VL: B1 VL
B26: 11F5-DA-11F5-AG (antibody, V domains shown)
VH: B11 VH with G55A
VL: B12 VL with D33A, A34G

Residue numbers refer to the chain shown, from its start.

Sequence of human CCR8 (human) (chain, as listed by the source): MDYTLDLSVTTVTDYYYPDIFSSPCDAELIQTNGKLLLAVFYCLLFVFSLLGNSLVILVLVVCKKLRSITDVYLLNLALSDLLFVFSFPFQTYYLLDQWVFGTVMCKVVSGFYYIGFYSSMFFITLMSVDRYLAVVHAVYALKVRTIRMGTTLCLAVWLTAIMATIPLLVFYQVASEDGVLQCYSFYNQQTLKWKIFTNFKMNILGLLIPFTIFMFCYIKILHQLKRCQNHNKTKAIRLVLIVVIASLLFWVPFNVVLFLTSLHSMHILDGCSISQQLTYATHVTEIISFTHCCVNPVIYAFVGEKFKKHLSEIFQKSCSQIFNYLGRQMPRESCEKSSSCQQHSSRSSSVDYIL

The first assay addresses T1, mouse CCR8. Put plainly: FACS.
B1 yielded a 50% effective concentration (EC50) of 0.053 µg/mL.

The next assay has as its target human CCR8 (human). Put plainly: FACS.
On to B1, for which the response was half-maximal at 0.015 µg/mL (EC50).

A further assay has as its target human CCR8 (human). Put plainly: FACS. The source holds these as a separate data set.
On to B2, for which the EC50 was 0.049 µg/mL.

The molecule B3 came in with a concentration giving a half-maximal response (EC50) of 0.075 µg/mL.

B4: the EC50 came out at 0.154 µg/mL.

Consider B5, for which the EC50 was found to be 0.043 µg/mL. This EC50 is about 3.6-fold lower than that of the molecule before.

For B6, a half-maximal response (EC50) required 0.298 µg/mL.

As to B7, the concentration for a half-maximal effect (EC50) came out at 0.064 µg/mL.

In the case of B8, it took 0.222 µg/mL to reach a half-maximal effect (EC50). Against the preceding molecule, the EC50 is about 3.5-fold higher.

The molecule B9 showed an EC50 of 0.009 µg/mL.

With B10, a half-maximal effect (EC50) was put at 0.076 µg/mL. This EC50 lies about 8.4-fold higher than the previous one.

Molecule B11 returned a concentration for a half-maximal effect (EC50) of 0.162 µg/mL. This EC50 is about 2.1-fold higher than that of the molecule before.

The molecule B12 gave a half-maximal effective concentration (EC50) of 0.15 µg/mL.

For the molecule B13, a half-maximal effect (EC50) was put at 0.033 µg/mL. Compared with the last molecule, the EC50 is about 4.5-fold lower.

In the case of B14, the midpoint of the response, the EC50, lay at 0.165 µg/mL. This EC50 lies about 5-fold higher than the previous one.

As for B15, a half-maximal response (EC50) required 0.137 µg/mL.

Take B16: the concentration for a half-maximal effect (EC50) turned out to be 0.048 µg/mL.

In turn, B17 gave a 50% effective concentration (EC50) of 0.073 µg/mL.

For B18, a half-maximal effect (EC50) was put at 0.05 µg/mL.

Regarding B19, a half-maximal effect (EC50) was put at 0.12 µg/mL.

As to B20, the 50% effective concentration (EC50) worked out at 0.132 µg/mL.

B21 showed an EC50 of 0.392 µg/mL.

Turning to B22, the 50% effective concentration (EC50) was found to be 0.047 µg/mL.

In turn, B23 yielded a 50% effective concentration (EC50) of 0.069 µg/mL.

For the molecule B24, the midpoint of the response, the EC50, lay at 0.124 µg/mL.

The target in a further assay is T1, mouse CCR8. Put plainly: FACS. This is another data set of the same source.
B2 yielded an EC50 of 0.173 µg/mL.

The molecule B3 came in with an EC50 of 0.155 µg/mL.

Regarding B5, the midpoint of the response, the EC50, lay at 0.038 µg/mL.

Consider B6, for which a half-maximal effect (EC50) was put at 0.171 µg/mL.

Molecule B7 yielded an EC50 of 0.059 µg/mL.

Molecule B8 yielded a half-maximal effective concentration (EC50) of 0.128 µg/mL. This EC50 lies about 2.2-fold higher than the previous one.

In turn, B9 gave a half-maximal effective concentration (EC50) of 0.099 µg/mL.

For the molecule B11, the EC50 was found to be 0.184 µg/mL. Compared with the last molecule, the EC50 is about 1.9-fold higher.

Molecule B12 showed an EC50 of 0.138 µg/mL.

The molecule B13 registered a 50% effective concentration (EC50) of 0.148 µg/mL. The EC50 values of the last two molecules are within 1.5-fold of each other.

B14 displayed an EC50 of 0.12 µg/mL.

Molecule B15 came in with an EC50 of 0.116 µg/mL. This EC50 and that of the molecule before are within 1.5-fold of each other.

Consider B16, for which the concentration giving a half-maximal response (EC50) amounted to 0.041 µg/mL.

B25 displayed a concentration giving a half-maximal response (EC50) of 0.149 µg/mL. Against the preceding molecule, the EC50 is about 3.6-fold higher.

On to B17, for which the 50% effective concentration (EC50) came out at 0.074 µg/mL.

Molecule B18 came in with an EC50 of 0.218 µg/mL.

Molecule B19 registered an EC50 of 0.171 µg/mL.

B20 registered a concentration giving a half-maximal response (EC50) of 0.163 µg/mL.

As for B21, a half-maximal effect (EC50) was put at 0.253 µg/mL.

In turn, B22 gave an EC50 of 0.042 µg/mL.

Take B23: the response was half-maximal at 0.092 µg/mL (EC50).

Take B26: the EC50 was 0.463 µg/mL.
